Assay results published in US20110152176A1, “AGR-MEDIATED INHIBITION AND DISPERSAL OF BIOFILMS” (priority 2008, published 2011).

Tests used:
[1] = test system: S. aureus SH1000 biofilm; assay: Flow cell biofilm detachment (CLSM, COMSTAT biomass, effluent CFU); format: cell-based, Staphylococcus aureus; conditions: SH1000 2-day biofilm, proteinase K 2 mg/mL
Protocol: (§1) Biofilm experiments. Microtiter plate biofilms were performed as described (Shanks et al., 2005) except that the plates were incubated at 37° C. with shaking at 200 rpm for 12 hours. For flow cell experiments, AIPs were generated using the DnaB intein method, and the AIP concentrations were determined as previously described (Malone et al., 2007). AIPs stocks (20 mM) were stored in 100 mM phosphate (pH 7), 50 mM NaC1, 1 mM tris(2-carboxyethyl) phosphine (TCEP) and were diluted into the biofilm flow medium to a final concentration of 50 nM. When required, […] of erythromycin and/or chloramphenicol were added to the flow cell media to maintain plasmids. The growth medium for flow cell biofilms consisted of 2% TSB plus 0.2% glucose unless otherwise indicated. Flow cell biofilm experiments and confocal microscopy were performed as previously described (Yarwood et al., 2004). […] Biofilm biomass was quantified with the COMSTAT program (Heydorn et al., 2000) and percent biomass detached was calculated by subtracting biomass present at day 4 from day 2. To quantitate the number of bacteria detaching from a biofilm, 1 ml of flow cell effluent was collected on ice at indicated time points. […]
AIP detaches S. aureus biofilms. […] To confirm that AIP-I caused detachment, the inventors counted viable S. aureus cells in the effluent media (FIG. 2C). […]

[2] = test system: SH1000 biofilm; assay: Microtiter plate biofilm formation; format: cell-based, Staphylococcus aureus; conditions: proteinase K added to SH1000 (data not shown)
Protocol: as §1, with “2004). Flow cells were inoculated with overnight cultures diluted 1:100 in sterile water and laminar flow ([…]) was initiated after one hour incubation.” for “2004).”

B1: proteinase K: protease enzyme (Sigma-Aldrich) suspended in water and added to the media reservoir (protein, UniProt P06873 106-384, looked up)
Proteinase K: AAQTNAPWGLARISSTSPGTSTYYYDESAGQGSCVYVIDTGIEASHPEFEGRAQMVKTYYYSSRDGNGHGTHCAGTVGSRTYGVAKKTQLFGVKVLDDNGSGQYSTIIAGMDFVASDKNNRNCPKGVVASLSLGGGYSSSVNSAAARLQSSGVMVAVAAGNNNADARNYSPASEPSVCTVGASDRYDRRSSFSNYGSVLDIFGPGTSILSTWIGGSTRSISGTSMATPHVAGLAAYLMTLGKTTAASACRYIADTANKGDLSNIPFGTVNLLAYNNYQA
biofilm detachment observed by CLSM [1]: rapid detachment over 12 hrs | biofilm development in microtiter plate [2]: biofilms were unable to develop
